Results: PMC7061092 (Physiological Reports, 2020)
Like-named read-outs stand apart in the source and are kept apart here. No end group written: not given here.

Experiments:
WT hERG = WT hERG (Homo sapiens, UniProt Q12809); settings: for Isochronal percentage of hERG block (IhERG tail): terfenadine 100 nM, thioridazine 100 nM, dofetilide 10 nM, chloroquine 1 µM, ketoconazole 3 µM, mean ± SEM
Experimental: (§1) For transient transfection experiments, 24 hr after plating cells out, cells were transiently transfected with 0.5 µg of the F656V hERG construct using Lipofectamine^TM LTX (Invitrogen) according to the manufacturer's instructions. […] Cells were plated onto small sterilized glass coverslips 6 hr after transfection and recordings were made after at least 24 hr incubation at 37°C. Successfully transfected cells were identified using Dynabeads® (Invitrogen). All experimental data for the F656V hERG mutant channel were obtained from cells from a minimum of two transfections.
(§2) Recordings of hERG current (IhERG) and were made using an Axopatch 200 amplifier (Axon Instruments) and a CV201 head‐stage. Between 70%–80% of pipette series resistance was compensated. Voltage‐clamp commands were generated using “WinWCP” (John Dempster, Strathclyde University).
The A(x)1 and B(x)1 values were derived from Equation 1. […] Time courses of IhERG inhibition were fitted using either a single (Equation 3) exponential decay fit of the forms:(3) Y=Y^0-Plateau∗exp-K∗X+Plateau.
IhERG “tail” magnitude was measured relative to instantaneous current at −40 mV elicited by the brief (50 ms) depolarizing step that preceded the voltage command to +20 mV in the absence and presence of the drug. […] We also assessed the effects of drug block on IhERG time constants of deactivation. Tail currents on repolarization to −40mV were fitted using a biexponential to derive the fast τ1 and slow τ2 time constants of deactivation in control and after drug application.

F656V hERG = F656V hERG (Homo sapiens, UniProt Q12809, F656V); assay: Whole-cell patch-clamp recording of IhERG in HEK 293 cells transiently transfected with F656V hERG at 37°C
Experimental: The F656V hERG mutation (Lees‐Miller, Duan, Teng, & Duff, 2000) was generated using the QuickChange® site‐directed mutagenesis kit (Stratagene). In brief, a pair of complementary oligonucleotide primers containing the mutation (forward primer sequence 5′[…]3′ and reverse primer sequence 5′ […]3′, synthesized by Sigma‐Genosys) was used in a PCR reaction (95°C for 1 min, 60°C for 1 min, 68°C for 16 min for 18 cycles) with hERG in a modified pcDNA3.0 vector as a DNA template. A DpnI digest of the PCR mix was then performed for 1 hr at 37°C. Competent DH5α Escherichia coli (Invitrogen) were transformed using standard procedures. The mutation was confirmed by sequencing of the entire open reading frame (Eurofins MWG Operon).
as §1, §2

[1] = 30 nM BeKm-1, absence of erythromycin
[2] = 30 nM BeKm-1 in the maintained presence of 3 µM erythromycin

Molecule | Isochronal percentage of hERG block (IhERG tail) (WT hERG; 0 µM erythromycin) | Isochronal percentage of hERG block (IhERG tail) (WT hERG; preincubation with 3 µM erythromycin) | Isochronal percentage of hERG block (IhERG tail) (WT hERG; preincubation with 30 µM erythromycin) | nature of interaction with erythromycin pretreatment on hERG block (WT hERG; pretreatment with low concentrations of erythromycin (≤30 µM)) | % of IhERG block at steady state (WT hERG) | WT IhERG tail block (WT hERG) | reduction of WT IhERG tail (WT hERG) | time course of WT hERG block (WT hERG) | reduction of F656V IhERG (F656V hERG; [1]) | thalf of F656V IhERG inhibition (F656V hERG; [1]) | block of F656V IhERG at steady state (F656V hERG; [2]) | thalf of F656V IhERG inhibition (F656V hERG; [2])
CCN(CC)CCCC(C)Nc1ccnc2cc(Cl)ccc12 (stereo not drawn) [Chloroquine, chloroquine] | 48.4 ± 3.9 (n = 5) % | 70.8 ± 5.3 (n = 5) % | 77.8 ± 0.6 (n = 4) % | strong synergism | – | – | – | – | – | – | – | –
BeKm‐1: peptide (scorpion) toxin, in house Fmoc-synthesized, externally acting hERG blocker (RPTDIKCSESYQCFPVCKSRFGKTNGRCVNGFCDCF; ends and bridges not checked; cysteine pairing not given here; UniProt Q9BKB7 22-57, looked up) | – | – | – | – | 51.4 ± 4.6% | 46.8 ± 5.0% | 52.2 ± 3.4% | delayed | 74.5 ± 1.6% | 14.2 ± 3.3 s | 69.4 ± 5.1% | 20.7 ± 4.6 s
